Biological target: Rod photoreceptor cGMP phosphodiesterase 6 (PDE6) (bovine (endogenous in rod outer segments)) (UniProt P11541)

Chain of Prenyl-binding protein (PrBP/δ) (Q95142 whole entry, stated change not applied): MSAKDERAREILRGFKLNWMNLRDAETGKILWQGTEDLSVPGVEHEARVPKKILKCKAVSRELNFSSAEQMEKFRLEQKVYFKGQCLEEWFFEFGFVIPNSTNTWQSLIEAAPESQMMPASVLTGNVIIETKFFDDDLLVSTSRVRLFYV

“Prenyl-binding protein (PrBP/δ) (from UniProt Q95142 1-150) (natural protein)” gave a Gα*-induced PDE6 activity (50 nM PDE6, 10 µM disc membranes, 1 µM Gα*) against PrBP/δ concentration; fit with two identical PrBP/δ binding sites on soluble PDE6 of 0.07 µM.
